The source of these data is the DeepSol protein solubility set.

The data set in a line: soluble on expression in E. coli; label from the status in PepcDB or PDB records.
Regarding “AIAPTGEDNIVVPPAFDGESVSKNKEIYVTFGVDVDAVAGWLGSYGGEDSPFDISRGICAAEVGVPRLLELFRRFDLKTTWFLPGHSVESFPLQMRQVVAAGHEVGAHGYSHENPVRMTPKQEEDVLALSVQILENLTGKKPKGYVAPWWELSAATPELLLRYGFKYDHSQGHHDFQPYYARTAEKWTNIDYSKPARDWMKPLDRGQSVDLVEIPANWYVDDLPPMMFIKSAPNSHGFMNPRDIEDLWRDQFEWVYREYNFAVFPITIHPDVSGRPQVLLMLERFISYIRRFPGVHWTTMEEVAQIFRNKQPFLNA”, the “soluble on expression in E. coli” value was “soluble”.

Regarding “AIATDSASLQFVSPYAFEAMQKVDVARLAALSDPELRLLLPCLVRMALCAPADQSNAWAQDKKLILRLLSGVEAVNSIVALLSVDFHALEQDARKEQQLRHKAGGSNGESILVSQLQHGLTLEFEHSDPLRRLRLALSELLAIMNKVQCPFIYSCIGMLIRVIFPTGAH”, the “soluble on expression in E. coli” value is recorded as “soluble”.

As to “AIAVGHKYPVKCLEVDKSKGRLVVSHRRAMAERQMEHLKTGALVEGTVQGVKPYGVFVDVFGTSGLLHISQISHDQVANIQSLFLPGEKVKCMVVSFDKQRGRISLSTKALEPHPGDMLRNKQLVYEKAEEMALSYNQRMDSPVRSKNTTSSSTDDIIAGLDIGSLDDLDPILFGTHTNSSNSNTHSDHLKQDSMNGTIPESDI”, the “soluble on expression in E. coli” value is given as “soluble”. Next, “AIWRSRSFDEAIEMFRESLYSAKNEVIVVTPSEFFETIREDLIKTLERGVTVSLYIDKIPDLSEFKGKGNFFVRQFYKLNHLIGMTDGKEVVTIQNATFDSIGPPSFKSTYPEIIFSQYSLIIEIFKESTLEKEIIGNPKDIRFFAMFHAVDFVKNHLKNRNIYAEITGKNLESGRLETLTGRVVGYTLSLREAVNNIHLETENGVVKVGGMFAVIEDYESTEIKFIMGGSRS”: “soluble”.

For “AKGEVWEAKPVGAAALPQWIRGRLDKIGLGIEADALALFAERVEGNLLAARQEIDKLGLLYPKGHTVNIDEAQTAVANVARFDAFQLAGAWMKGDVLRVCRLLDGLREEGEEPVLLLWAVAEDVRTLIRLAAALKQGQSIQSVRNSLRLWGDKQTLAPLAVKRISVVRLLDALKTCAQIDRIIKGAEDGDAWTVFKRLVVSLAE”, the “soluble on expression in E. coli” value is “soluble”. The result for “AKIYDKNGELVKTLDNGQRHEHVNIKDVPKDMKNAVLATEDNRFYQHGALDYKRLFGAIGKNLTGGFGSQGASTLTQQVVKDSFLTQQKSIGRKAQEAYLSYRLEQEYSKDEIFQVYMNKIYYSDGVTGIKAAAKYYFNKDMKDLNLAEEAYLAGLPQVPNLYNIYNNP” reads “not soluble”; that for “AKPIDVSRLDLRIGCIITARKHPDADSLYVEEVDVGEIAPRTVVSGLVNHVPLEQMQNRMVILLCNLKPAKMRGVLSQAMVMCASSPEKIEILAPPNGSVPGDRITFDAFPGEPDKELNPKKKIWEQIQPDLHTNDECVATYKGVPFEVKGKGVCRAQTMSNSGIKLEHHHHHH”, “soluble”. The result for “AKRYWNANLDTYHPKNVSQNRALLTIRVFVHNFNPEEGKGLTFVGSPGVGKTHLAVATLKAIYEKKGIRGYFFDTKDLIFRLKHLMDEGKDTKFLKTVLNSPVLVLDDLGSERLSDWQRELISYIITYRYNNLKSTIITTNYSLQREEESSVRISADLASRLGENVVSKIYEMNELLVIKGSDLR” reads “soluble”. Next, “AKVQAYVSDEIVYKINKIVERRRAEGAKSTDVSFSSISTMLLELGLRVYEAQMER”: “soluble”. Consider “ALQAAADIDTVVFDLNGTLTQGKMVVKSLHITDKKYLRPIALLESQSDHPVAKIIKSYMEQQDTASTEPLEITSIDKSHHSGMKGIINGEVFIIGNKDMLAANGITSIDKPYDNPEKGSVYIVRGTTVIGQIALIDPLREDAIATVKQLKRLGKSVHICTGADQATAEKYAALLGIPKDNICANTVGAVTKKGEVSKTSYIQQLKQKGFKVAMVGDAANDATAIAYSDIGIAVKSSIGDSITEQHAGIVVQQGLLFPIATAFDVAQKTKQNIFQNLFVSLSYNSIIT”, for which the “soluble on expression in E. coli” value is recorded as “not soluble”. In the case of “ALQNKEEEKKKVKKLQKSYFDVLGICCTSEVPIIENILKSLDGVKEYSVIVPSRTVIVVHDSLLISPFQIAKALNEARLEANVRVNGETSFKNKW”, the “soluble on expression in E. coli” value is “soluble”. The result for “AMRQCAIYGKGGIGKSTTTQNLVAALAEMGKKVMIVGCDPKADSTRLILHSKAQNTIMEMAAEAGTVEDLELEDVLKAGYGGVKCVESGGPEPGVGCAGRGVITAINFLEEEGAYEDDLDFVFYDVLGDVVCGGFAMPIRENKAQEIYIVCSGEMMAMYAANNISKGIVKYANSGSVRLGGLICNSRNTDREDELIIALANKLGTQMIHFVPRDNVVQRAEIRRMTVIEYDPKAKQADEYRALARKVVDNKLLVIPNPITMDELEELLMEFGIMEVEDESIVGKTAEEV” reads “soluble”. The result for “AMSTQGLVQLLANAQCHLRTSTNYNGVHTQFNSALNYKNNGTNTIDGSEAWCSSIVDTNQYIVAGCEVPRTFMCVALQGRGDADQWVTSYKIRYSLDNVSWFEYRNGAAVTGVTDRNTVVNHFFDTPIRARSIAIHPLTWNGHISLRCEFYTQPVQSSVTQVGADIYTGDNCALNTGSGKREVVVPVKFQFEFATLPKVALNFDQIDCTDATNQTRIGVQPRNITTKGFDCVFYTWNENKVYSLRADYIATALE” reads “soluble”. The result for “ANEVNVYSYRQPYLIEPMLKNFEKDTGIKVNIIFADKGLVDRVKQEGELSPADVLLTVDISRVMEIVNADLAQKIDSKVLEKNIPAQFRDSNDQWFGLTTRARVIYTSKDRVGKLPAGFDYLDLAKPEYKGKVCVRSGKNSYNVSLFAAMIEHYGIEKTKAFLEGLKANLARKPQGGDRDQVKAIKEGICDYSIGNSYYYGKMLDDEKQKSWAEAAIINFPSGEHGTHKNISGVVIAKHSPNKANAVKLIEYLSGEKAQGLYAELNHEYPVKEGIEPSAIVKGWGTFKSDTIKLEDIAKNYEAALKLVDEVKFDDFSEKK” reads “soluble”.

With “APAADAAQAHDPLSVQTGSDIPASVHMPTDQQRDYIKREVMVPMRDGVKLYTVIVIPKNARNAPILLTRTPYNAKGRANRVPNALTMREVLPQGDDVFVEGGYIRVFQDIRGKYGSQGDYVMTRPPHGPLNPTKTDETTDAWDTVDWLVHNVPESNGRVGMTGSAYEGFTVVMALLDPHPALKVAAPESPMVDGWMGDDWFHYGAFRQGAFDYFVSQMTARGGGNDIPRRDADDYTNFLKAGSAGSFATQAGLDQYPFWQRMHAHPAYDAFWQGQALDKILAQRKPTVPMLWEQGLWDQEDMWGAIHAWQALKDADVKAPNTLVMGPWRHSGVNYNGSTLGPLEFEGDTAHQYRRDVFRPFFDEYLKPGSASVHLPDAIIYNTGDQKWDYYRSWPSVCESNCTGGLTPLYLADGHGLSFTHPAADGADSYVSDPAHPVPFISRPFAFAQSSRWKPWLVQDQREAESRPDVVTYETEVLDEPVRVSGVPVADLFAATSGTDSDWVVKLIDVQPAMTPDDPKMGGYELPVSMDIFRGRYRKDFAKPEALQPDATLHYHFTLPAVNHVFAKGHRIMVQIQSSWFPLYDRNPQKFVPNIFDAKPADYTVATQSIHHGGKEATSILLPVVKQKLGPEQKLISEEDLNSAVDHHHHHH”, the “soluble on expression in E. coli” value was “soluble”.

Take “AQAEASSAQAAQQKNFNIAAQPLQSAMLRFAEQAGMQVFFDEVKLDGMQAAALNGSMSVEQGLRRLIGGNPVAFRLQPQGQIVLSRLPTANGDGGALALDSLTVLGAGGNNANDWVYDEPRSVSVISREQMDNRPARHAADILEQTTGAYSSVSQQDPALSVNIRGIQDYGRVNMNIDGMRQNFQKSGHGQRNGTMYIDSELLSGVTIDKGTTGGMGSAGTLGGIATFNTVSASDFLAPGKELGGKLHASTGDNGTHFIGSGILALGNETGDILLAASERHLGDYWPGNKGDIGNIRINNDTGNYDRYAESIKNNKIPDTHYRMHSRLAKVGWNLPANQRLQLSYLQTQTASPIAGTLTNLGTRPPYELGWKRTGYTDVMARNAAFDYSLAPEDVDWLDFQAKLYYVDTQDDSDTYSTSSLLDNGYATRTRLRTYGAQAQNTSRFSLAPGHDFRANYGLEFYYDKATSDSSRQGMEGVTPAGNRSVASLFANLTYDYDGWLTLEGGLRYDRYRLRGQTGLSYPDLAKDGQRYTIDNPCKALRLTGCSTTTREDWDVDRDQGKLSPTLAVAVRPGVEWLELYTTYGKSWRPPAITETLTNGSAHSSSTQYPNPFLQPERSRAWEVGFNVQQPDLWFEGDRLVAKVAYFDTKVDNYINLAIDRNKPGLVQPSIGNAAYVNNLSKTRFRGLEYQLNYDAGVFYADLTYTHMIGKNEFCSNKAWLGGRLRYGDGSRRGNFYVEPDAASNDFVTCDGGTQFGSAAYLPGDRGSVTLGGRAFDRKLDAGVTVRFAPGYQDSSVPSNYPYLADWPKYTLFDLYASYKLTDSLTLRGSVENLTNRAYVVSYGETLANTLGRGRTVQGGVEYRF”: the “soluble on expression in E. coli” value was “soluble”. The result for “AQCEATIESNDAMQYDLKEMVVDKSCKQFTVHLKHVGKMAKSAMGHNWVLTKEADKEGVATDGMNAGLAQDYVKAGDTRVIAHTKVIGGGESDSVTFDVSKLTPGEAYAYFCSFPGHWAMHKGTLKLSN” reads “soluble”; that for “AQIDLNITCRFAGVFHVEKNGRYSISRTEAADLCKAFNSTLPTMAQMEKALSIGFETCRYGFIEGHVVIPRIHPNSICAANNTGVYILTSNTSQYDTYCFNASAPPEEDCTSVTDLPNAFDGPITITIVNRDGTRYVQKGEYRTNPEDIYPSNPTDDDV”, “soluble”; that for “AQVEPTVAYPHIPSNGRVAGSDRIRVTHAYVGSCTNGRITDLRDVARILKGRKVAQDVQMIVVPATQAIWKQAAQEGLLEIFVDAGASVSYPSCGACLGMHSGVLGPDDICISSSNRNFVGRMGDPSAQIYLASPATVAASAVEGFIADPRRYDAEGND”, “not soluble”. On to “ARLRAGFEAAGAQGVETPILQPAETLLDLYGEDIRARAYVTSDALRGEQMLRPDFTVPVVQKHMEHGAEPARYTYAGEVFRRQEHDPDRANEYIQVGYEVFDRTNPAAADAEVFALIAQALDGLALRAATGDIGILMAAVEGLKTTEPRKAALMRHIWRPRRFRALLDRYAGRTTVPPARAALLAESEPLADGAPEIGKRSRAEVEARIEVLRADAAAAPISDNEMAGLDALLSVRETMPYALEHLRDIAVDLPQITPALDRLEARIAALRARGINVDRLDFEASYGRTSMEYYDGFVFGFYAERRPDLPPIATGGRYDALTRRLGNGAEIPAVGGVLRPGLMLLLAEAE”, for which the “soluble on expression in E. coli” value is on record as “not soluble”. Next, “ASGSMQGDPDVLRLLNEQLTSELTAINQYFLHSKMQDNWGFTELAAHTRAESFDEMRHAEEITDRILLLDGLPNYQRIGSLRIGQTLREQFEADLAIEYDVLNRLKPGIVMCREKQDTTSAVLLEKIVADEEEHIDYLETQLELMDKLGEELYSAQCVSRPPTSAWSHPQFEK”: “soluble”. As for “ASLLARYPPEKLFQAERNFNAAQDLDVSLLEGDLVGVIKKKDPMGSQNRWLIDNGVTKGFVYSSFLKPYNPRRSHSDAS”, the “soluble on expression in E. coli” value is recorded as “soluble”. Next, “ASMTGGQQMGRGSDSKPPYSYAQLIVQAITMAPDKQLTLNGIYTHITKNYPYYRTADKGWQNSIRHNLSLNRYFIKVPRSQEEPGKGSFWRIDPASESKLIEQAFRKRRPR”: “soluble”. Turning to “ASMTGNECPELQPPVHGKIEPSQAKYFFKDQVLVSCDTGYKVLKDNVEMDTFQIECLKDGTWSNKIPTCKIVDCRAPGELEHGLITFSTRNNLTTYKSEIKYSCQEPYYKMLNNNTGIYTCSAQGVWMNKVLGRSLPTCLPVCGLPKFSRKLMAR”, the “soluble on expression in E. coli” value is given as “soluble”.
